According to the Human Domainome abundance scans (Beltran et al. 2025):
± gives the uncertainty stated by the source.

B1: Advillin, residues 785 to 819; numbered along this chain, O75366 (parent)
chain: LSEQDFVSVFGITRGQFAALPGWKQLQMKKEKGLF

Variants of: B1
Assay: abundance fitness (aPCA) (normalised: wild type 0, dead -1); higher = more abundant; growth selection in yeast, the domain comes from the species named
Settings: Homo sapiens

First: LSEQDFVSVFGITRGQFPALPGWKQLQMKKEKGLF
Second: LSEQDFVSVFGITRGQFSALPGWKQLQMKKEKGLF
The abundance fitness of the first is lower: -0.438 ± 0.16 for the first, -0.201 ± 0.065 for the second.

LSEQDFVSVFGITRGQFCALPGWKQLQMKKEKGLF and LSEQDFVSVFGITRTQFAALPGWKQLQMKKEKGLF are within error of each other in abundance fitness: -0.079 ± 0.09 for the first, -0.052 ± 0.063 for the second.

First: LSEQDFVSVFGITREQFAALPGWKQLQMKKEKGLF
Second: LSEQDFVSVFGITRRQFAALPGWKQLQMKKEKGLF
The abundance fitness of the first is higher: 0.238 ± 0.064 for the first, -0.089 ± 0.048 for the second.

LSEQDFVSVFGITRLQFAALPGWKQLQMKKEKGLF and LSEQDFVSVFGITRNQFAALPGWKQLQMKKEKGLF are within error of each other in abundance fitness: -0.215 ± 0.069 for the first, -0.05 ± 0.11 for the second.

LSEQDFVSVFGITRAQFAALPGWKQLQMKKEKGLF and LSEQDFVSVFGITRHQFAALPGWKQLQMKKEKGLF are within error of each other in abundance fitness: 0.16 ± 0.052 for the first, 0.008 ± 0.11 for the second.

Going from LSEQDFVSVFGITRSQFAALPGWKQLQMKKEKGLF to LSEQDFVSVFGITRVQFAALPGWKQLQMKKEKGLF, the abundance fitness falls from 0.203 ± 0.071 to -0.077 ± 0.061.

First: LSEQDFVSVFGITRFQFAALPGWKQLQMKKEKGLF
Second: LSEQDFVSVFGITRDQFAALPGWKQLQMKKEKGLF
The abundance fitness of the first is lower: -0.193 ± 0.083 for the first, 0.009 ± 0.093 for the second.

First: LSEQDFVSVFGITRCQFAALPGWKQLQMKKEKGLF
Second: LSEQDFVSVFGITRIQFAALPGWKQLQMKKEKGLF
The abundance fitness of the first is lower: -0.152 ± 0.1 for the first, 0.042 ± 0.076 for the second.

First: LSEQDFVSVFGITRPQFAALPGWKQLQMKKEKGLF
Second: LSEQDFVSVFGITRQQFAALPGWKQLQMKKEKGLF
The abundance fitness of the first is lower: -0.413 ± 0.1 for the first, 0.11 ± 0.083 for the second.

Going from LSEQDFVSVFGITRWQFAALPGWKQLQMKKEKGLF to LSEQDFVSVFGITRKQFAALPGWKQLQMKKEKGLF, the abundance fitness rises from -0.395 ± 0.07 to 0.15 ± 0.065.

LSEQDFVSVFGITRGQTAALPGWKQLQMKKEKGLF and LSEQDFVSVFGITRGQLAALPGWKQLQMKKEKGLF are within error of each other in abundance fitness: -0.486 ± 0.12 for the first, -0.476 ± 0.082 for the second.

LSEQDFVSVFGITRGQWAALPGWKQLQMKKEKGLF and LSEQDFVSVFGITRGQCAALPGWKQLQMKKEKGLF are within error of each other in abundance fitness: -0.441 ± 0.08 for the first, -0.435 ± 0.14 for the second.

LSEQDFVSVFGITRGQIAALPGWKQLQMKKEKGLF and LSEQDFVSVFGITRGQVAALPGWKQLQMKKEKGLF are within error of each other in abundance fitness: -0.538 ± 0.12 for the first, -0.396 ± 0.072 for the second.

Going from LSEQDFVSVFGITRGQYAALPGWKQLQMKKEKGLF to LSEQDFVSVFGITRGQPAALPGWKQLQMKKEKGLF, the abundance fitness rises from -0.969 ± 0.14 to -0.631 ± 0.11.

LSEQDFVSVFGITRGQEAALPGWKQLQMKKEKGLF and LSEQDFVSVFGITRGQQAALPGWKQLQMKKEKGLF are within error of each other in abundance fitness: -0.33 ± 0.07 for the first, -0.344 ± 0.18 for the second.

LSEQDFVSVFGITRGQAAALPGWKQLQMKKEKGLF and LSEQDFVSVFGITRGQKAALPGWKQLQMKKEKGLF are within error of each other in abundance fitness: -0.389 ± 0.059 for the first, -0.479 ± 0.078 for the second.

LSEQDFVSVFGITRGQMAALPGWKQLQMKKEKGLF and LSEQDFVSVFGITRGQGAALPGWKQLQMKKEKGLF are within error of each other in abundance fitness: -0.249 ± 0.081 for the first, -0.37 ± 0.055 for the second.

First: LSEQDFVSVFGITRGQHAALPGWKQLQMKKEKGLF
Second: LSEQDFVSVFGITRGQSAALPGWKQLQMKKEKGLF
The abundance fitness of the first is lower: -0.965 ± 0.22 for the first, -0.454 ± 0.058 for the second.

LSEQDFVSVFGITRGQRAALPGWKQLQMKKEKGLF and LSEQDFVSVFGTTRGQFAALPGWKQLQMKKEKGLF are within error of each other in abundance fitness: -0.554 ± 0.058 for the first, -0.531 ± 0.084 for the second.

Going from LSEQDFVSVFGVTRGQFAALPGWKQLQMKKEKGLF to LSEQDFVSVFGKTRGQFAALPGWKQLQMKKEKGLF, the abundance fitness falls from -0.089 ± 0.069 to -0.312 ± 0.11.

First: LSEQDFVSVFGGTRGQFAALPGWKQLQMKKEKGLF
Second: LSEQDFVSVFGPTRGQFAALPGWKQLQMKKEKGLF
The abundance fitness of the first is higher: -0.429 ± 0.062 for the first, -0.713 ± 0.092 for the second.

Going from LSEQDFVSVFGQTRGQFAALPGWKQLQMKKEKGLF to LSEQDFVSVFGMTRGQFAALPGWKQLQMKKEKGLF, the abundance fitness rises from -0.897 ± 0.15 to 0.128 ± 0.079.

LSEQDFVSVFGYTRGQFAALPGWKQLQMKKEKGLF and LSEQDFVSVFGNTRGQFAALPGWKQLQMKKEKGLF are within error of each other in abundance fitness: -0.306 ± 0.14 for the first, -0.471 ± 0.1 for the second.

LSEQDFVSVFGHTRGQFAALPGWKQLQMKKEKGLF and LSEQDFVSVFGRTRGQFAALPGWKQLQMKKEKGLF are within error of each other in abundance fitness: -0.633 ± 0.17 for the first, -0.629 ± 0.058 for the second.

Going from LSEQDFVSVFGATRGQFAALPGWKQLQMKKEKGLF to LSEQDFVSVFGLTRGQFAALPGWKQLQMKKEKGLF, the abundance fitness rises from -0.445 ± 0.083 to -0.101 ± 0.07.

LSEQDFVSVFGSTRGQFAALPGWKQLQMKKEKGLF and LSEQDFVSVFGDTRGQFAALPGWKQLQMKKEKGLF are within error of each other in abundance fitness: -0.629 ± 0.064 for the first, -0.442 ± 0.14 for the second.

Going from LSEQDFVSVFGWTRGQFAALPGWKQLQMKKEKGLF to LSEQDFVSVFGETRGQFAALPGWKQLQMKKEKGLF, the abundance fitness rises from -0.999 ± 0.11 to -0.592 ± 0.12.

LSEQDFVSVFGITRGQFAFLPGWKQLQMKKEKGLF and LSEQDFVSVFGITRGQFATLPGWKQLQMKKEKGLF are within error of each other in abundance fitness: -0.245 ± 0.26 for the first, -0.254 ± 0.069 for the second.

LSEQDFVSVFGITRGQFAHLPGWKQLQMKKEKGLF and LSEQDFVSVFGITRGQFASLPGWKQLQMKKEKGLF are within error of each other in abundance fitness: -0.119 ± 0.11 for the first, -0.068 ± 0.078 for the second.

Compared with LSEQDFVSVFGITRGQFADLPGWKQLQMKKEKGLF, LSEQDFVSVFGITRGQFAPLPGWKQLQMKKEKGLF is lower in abundance fitness: -0.068 ± 0.13 for the first, -0.749 ± 0.11 for the second.

Going from LSEQDFVSVFGITRGQFAYLPGWKQLQMKKEKGLF to LSEQDFVSVFGITRGQFANLPGWKQLQMKKEKGLF, the abundance fitness rises from -0.409 ± 0.12 to -0.052 ± 0.18.

Going from LSEQDFVSVFGITRGQFAGLPGWKQLQMKKEKGLF to LSEQDFVSVFGITRGQFAELPGWKQLQMKKEKGLF, the abundance fitness rises from -0.114 ± 0.055 to 0.021 ± 0.063.

First: LSEQDFVSVFGITRGQFAWLPGWKQLQMKKEKGLF
Second: LSEQDFVSVFGITRGQFALLPGWKQLQMKKEKGLF
The abundance fitness of the first is lower: -0.654 ± 0.096 for the first, -0.137 ± 0.082 for the second.

LSEQDFVSVFGITRGQFAQLPGWKQLQMKKEKGLF and LSEQDFVSVFGITRGQFACLPGWKQLQMKKEKGLF are within error of each other in abundance fitness: -0.367 ± 0.14 for the first, -0.209 ± 0.16 for the second.

LSEQDFVSVFGITRGQFAMLPGWKQLQMKKEKGLF and LSEQDFVSVFGITRGQFAILPGWKQLQMKKEKGLF are within error of each other in abundance fitness: -0.174 ± 0.096 for the first, -0.5 ± 0.35 for the second.
